Substance: modified PKG (M438G)
- thiophosphate ester labeling of TSC2 (TSC2-FLAG SA (S1365A)): both radioactive or thiophosphate ester labeling of TSC2 was also seen when SA TSC2 was used

Substance: recombinant PKG (purified active PKG)
- radioactive labeling of TSC2 ([gamma-33P]-ATP, autoradiography) (TSC2-FLAG SA (S1365A)): both radioactive or thiophosphate ester labeling of TSC2 was also seen when SA TSC2 was used

Substance: ERK2
- TSC2 radiolabeling with [gamma-33P]-ATP (in vitro kinase assay on FLAG-immune-precipitate) (WT-TSC2-FLAG): ERK2-TSC2 phosphorylation served as a positive control

ERK2, sequence (P28482 2-360): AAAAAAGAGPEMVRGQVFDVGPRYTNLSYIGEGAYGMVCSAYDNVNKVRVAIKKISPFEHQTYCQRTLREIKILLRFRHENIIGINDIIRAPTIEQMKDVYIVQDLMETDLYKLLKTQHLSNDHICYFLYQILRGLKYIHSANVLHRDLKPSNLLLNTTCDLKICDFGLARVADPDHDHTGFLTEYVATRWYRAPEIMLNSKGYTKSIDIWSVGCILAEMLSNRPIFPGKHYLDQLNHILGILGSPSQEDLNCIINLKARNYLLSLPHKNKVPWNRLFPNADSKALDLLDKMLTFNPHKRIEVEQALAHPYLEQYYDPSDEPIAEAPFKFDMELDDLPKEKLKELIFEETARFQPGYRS
